The assay has as its target T1, HCMV gH/gL complex expressed in U373 astrocytoma cells (Human cytomegalovirus (HHV-5), strain …, UniProt P12824;P16832).
T1 construct: Human cytomegalovirus envelope glycoprotein H (gH); Human cytomegalovirus envelope glycoprotein L (gL); The immunisation plasmid and the peptide array used TB40/E gH, but no strain is named for the U373 cells; also called gH/gL-dimer; U373-gH/gL
Briefly: flow cytometry on cells; Competition of the anti-gH mAbs with MSL-109. The set-up for MSL-109 is not told. The competition assay in the methods uses fixed, permeabilised U373-gH/gL cells, AF647-labelled antibody plus unlabelled antibody, 4 °C, 1 h. The note with it: one partner purified. (Flow cytometry measures light scatter and fluorescence of single cells or particles in a stream.)

B1: MSL-109 (antibody, V domains shown)
VH: EEQVLESGGGLVKPGGSLRLSCAASGFTFSPYSVFWVRQAPGKGLEWVSSINSDSTYKYYADSVKGRFTISRDNAENSIFLQMNSLRAEDTAVYYCARDRSYYAFSSGSLSDYYYGLDVWGQGTLVTVSS
VL: DIVMTQSPLSLSVTPGEPASISCRSSQSLLHTNGYNYLDWYVQKPGQSPQLLIYLASNRASGVPDRFSGSGSGTDFTLKISRVETEDVGVYYCMQALQIPRTFGQGTKVEIK
notes: Human IgG1 constant region from the pFuse vector (InvivoGen); Human kappa constant region from the pFuse vector (InvivoGen); Human IgG1 kappa; source: HEK-293, heavy and light chain co-transfected, purified from the cell supernatant
Turning to B1, the binding result is listed as “binds”.
